Measurements published in PMC9482650, “Quantitative fragmentomics allow affinity mapping of interactomes” (Nature Communications, 2022).

These binders were tested against PTPN3, P26045 (assay: holdup assay). Details: plain residues with an end cap or a label only (N-terminal biotin on a linker: ado-ado).
Sequence of PTPN3, P26045 (P26045 505-587): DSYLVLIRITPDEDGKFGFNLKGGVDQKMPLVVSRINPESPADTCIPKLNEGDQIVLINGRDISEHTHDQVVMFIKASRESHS
Set-up: key: below the threshold = too weak to quantify, mostly under pKd 3.1 to 4
In the case of MLPANYVEAI [NEB, P20929], the pKd is reported as 3.64. LVEEEEPMNL [HDAC7, Q8WUI4] was tested, and the pKd was 4.04.

These binders were tested against GRID2IP_1, A4D2P6 (assay: holdup assay). Details: plain residues with an end cap or a label only (N-terminal biotin on a linker: ado-ado).
Sequence of GRID2IP_1, A4D2P6 (A4D2P6 1-87): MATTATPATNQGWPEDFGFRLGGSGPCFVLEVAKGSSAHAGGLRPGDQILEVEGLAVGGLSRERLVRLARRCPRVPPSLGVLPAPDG
Set-up: key: below the threshold = too weak to quantify, mostly under pKd 3.1 to 4
MLPANYVEAI [NEB, P20929] was tested, and the pKd was “below the threshold”. In the case of LVEEEEPMNL [HDAC7, Q8WUI4], the pKd is reported as “below the threshold”.

What follows are binders tested against T1, APBA1_1, Q02410 (assay: holdup assay). Details: plain residues with an end cap or a label only (N-terminal biotin on a linker: ado-ado).
T1 sequence (Q02410 651-752, limits assumed, looked up): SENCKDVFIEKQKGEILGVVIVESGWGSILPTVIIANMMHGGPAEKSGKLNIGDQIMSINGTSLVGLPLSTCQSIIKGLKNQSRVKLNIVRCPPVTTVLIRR
Set-up: key: below the threshold = too weak to quantify, mostly under pKd 3.1 to 4
MLPANYVEAI [NEB, P20929] was tested, and the pKd was “below the threshold”. With LVEEEEPMNL [HDAC7, Q8WUI4] the pKd was “below the threshold”.

These binders were tested against PARD3_3, Q8TEW0 (assay: holdup assay). Details: plain residues with an end cap or a label only (N-terminal biotin on a linker: ado-ado).
Sequence of PARD3_3, Q8TEW0 (Q8TEW0 582-685): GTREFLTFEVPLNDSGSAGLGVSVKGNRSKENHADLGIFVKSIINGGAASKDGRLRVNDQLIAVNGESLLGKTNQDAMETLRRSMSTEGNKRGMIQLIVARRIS
Set-up: key: below the threshold = too weak to quantify, mostly under pKd 3.1 to 4
MLPANYVEAI [NEB, P20929] was tested, and the pKd was “below the threshold”. LVEEEEPMNL [HDAC7, Q8WUI4] was tested, and the pKd was 4.23.

Each binder was assayed against SCRIB_2, Q14160 (assay: holdup assay). Details: plain residues with an end cap or a label only (N-terminal biotin on a linker: ado-ado).
Sequence of SCRIB_2, Q14160 (Q14160 857-960): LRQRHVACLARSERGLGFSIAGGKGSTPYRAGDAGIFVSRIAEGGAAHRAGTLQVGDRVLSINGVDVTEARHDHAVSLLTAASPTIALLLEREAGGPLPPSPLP
Set-up: key: below the threshold = too weak to quantify, mostly under pKd 3.1 to 4
For MLPANYVEAI [NEB, P20929], the pKd was “below the threshold”. In the case of LVEEEEPMNL [HDAC7, Q8WUI4], the pKd is reported as “below the threshold”.

The binders below were run against T2, ARHGEF11, O15085 (assay: holdup assay). Details: plain residues with an end cap or a label only (N-terminal biotin on a linker: ado-ado).
T2 sequence (O15085 42-136, limits assumed, looked up): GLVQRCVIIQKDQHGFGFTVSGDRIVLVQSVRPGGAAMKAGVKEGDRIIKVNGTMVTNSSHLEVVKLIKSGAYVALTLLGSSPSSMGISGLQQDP
Set-up: key: below the threshold = too weak to quantify, mostly under pKd 3.1 to 4
With MLPANYVEAI [NEB, P20929] the pKd was “below the threshold”. With LVEEEEPMNL [HDAC7, Q8WUI4] the pKd was “below the threshold”.

What follows are binders tested against MAGI2_3, Q86UL8 (assay: holdup assay). Details: plain residues with an end cap or a label only (N-terminal biotin on a linker: ado-ado).
Sequence of MAGI2_3, Q86UL8 (Q86UL8 600-682): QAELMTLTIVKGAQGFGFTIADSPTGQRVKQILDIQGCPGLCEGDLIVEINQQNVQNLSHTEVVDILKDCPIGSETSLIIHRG
Set-up: key: below the threshold = too weak to quantify, mostly under pKd 3.1 to 4
In the case of MLPANYVEAI [NEB, P20929], the pKd is reported as “below the threshold”. LVEEEEPMNL [HDAC7, Q8WUI4] was tested, and the pKd was “below the threshold”.

What follows are binders tested against T3, RAPGEF6, Q8TEU7 (assay: holdup assay). Details: plain residues with an end cap or a label only (N-terminal biotin on a linker: ado-ado).
T3 sequence (Q8TEU7 525-625, limits assumed, looked up): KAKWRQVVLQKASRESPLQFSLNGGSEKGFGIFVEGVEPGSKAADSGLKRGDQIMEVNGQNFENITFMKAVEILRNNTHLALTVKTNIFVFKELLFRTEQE
Set-up: key: below the threshold = too weak to quantify, mostly under pKd 3.1 to 4
MLPANYVEAI [NEB, P20929] was tested, and the pKd was “below the threshold”. LVEEEEPMNL [HDAC7, Q8WUI4] was tested, and the pKd was “below the threshold”.

These binders were tested against PDLIM1, O00151 (assay: holdup assay). Details: plain residues with an end cap or a label only (N-terminal biotin on a linker: ado-ado).
Sequence of PDLIM1, O00151 (O00151 1-87): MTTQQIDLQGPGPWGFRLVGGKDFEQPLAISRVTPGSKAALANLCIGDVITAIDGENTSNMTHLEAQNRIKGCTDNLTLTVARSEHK
Set-up: key: below the threshold = too weak to quantify, mostly under pKd 3.1 to 4
With MLPANYVEAI [NEB, P20929] the pKd was “below the threshold”. For LVEEEEPMNL [HDAC7, Q8WUI4], the pKd was “below the threshold”.

What follows are binders tested against T4, LIN7C, Q9NUP9 (assay: holdup assay). Details: plain residues with an end cap or a label only (N-terminal biotin on a linker: ado-ado).
T4 sequence (Q9NUP9 88-185, limits assumed, looked up): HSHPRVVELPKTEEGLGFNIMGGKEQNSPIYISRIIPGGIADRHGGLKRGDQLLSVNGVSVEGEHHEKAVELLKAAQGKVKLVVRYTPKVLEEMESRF
Set-up: key: below the threshold = too weak to quantify, mostly under pKd 3.1 to 4
MLPANYVEAI [NEB, P20929] was tested, and the pKd was “below the threshold”. LVEEEEPMNL [HDAC7, Q8WUI4] was tested, and the pKd was 4.12.

The binders below were run against LDB3, O75112 (assay: holdup assay). Details: plain residues with an end cap or a label only (N-terminal biotin on a linker: ado-ado).
Sequence of LDB3, O75112 (O75112 1-94): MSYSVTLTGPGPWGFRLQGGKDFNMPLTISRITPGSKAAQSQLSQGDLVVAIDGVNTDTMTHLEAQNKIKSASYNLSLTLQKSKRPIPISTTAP
Set-up: key: below the threshold = too weak to quantify, mostly under pKd 3.1 to 4
For MLPANYVEAI [NEB, P20929], the pKd was “below the threshold”. LVEEEEPMNL [HDAC7, Q8WUI4] was tested, and the pKd was “below the threshold”.

Each binder was assayed against MAGI2_4, Q86UL8 (assay: holdup assay). Details: plain residues with an end cap or a label only (N-terminal biotin on a linker: ado-ado).
Sequence of MAGI2_4, Q86UL8 (Q86UL8 772-865): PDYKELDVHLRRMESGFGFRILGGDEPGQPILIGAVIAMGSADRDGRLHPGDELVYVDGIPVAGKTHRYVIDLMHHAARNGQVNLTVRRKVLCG
Set-up: key: below the threshold = too weak to quantify, mostly under pKd 3.1 to 4
For MLPANYVEAI [NEB, P20929], the pKd was “below the threshold”. For LVEEEEPMNL [HDAC7, Q8WUI4], the pKd was “below the threshold”.

Each binder was assayed against Inadl_2, Q8NI35 (assay: holdup assay). Details: plain residues with an end cap or a label only (N-terminal biotin on a linker: ado-ado).
Sequence of Inadl_2, Q8NI35 (Q8NI35 238-335): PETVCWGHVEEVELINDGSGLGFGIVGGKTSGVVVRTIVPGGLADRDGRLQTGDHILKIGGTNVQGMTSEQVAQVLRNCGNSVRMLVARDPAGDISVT
Set-up: key: below the threshold = too weak to quantify, mostly under pKd 3.1 to 4
In the case of MLPANYVEAI [NEB, P20929], the pKd is reported as “below the threshold”. In the case of LVEEEEPMNL [HDAC7, Q8WUI4], the pKd is reported as “below the threshold”.

The binders below were run against T5, LRRC7, Q96NW7 (assay: holdup assay). Details: plain residues with an end cap or a label only (N-terminal biotin on a linker: ado-ado).
T5 sequence (Q96NW7 1440-1537, limits assumed, looked up): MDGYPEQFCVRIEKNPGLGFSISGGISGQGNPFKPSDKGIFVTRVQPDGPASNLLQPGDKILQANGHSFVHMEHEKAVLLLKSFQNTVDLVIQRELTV
Set-up: key: below the threshold = too weak to quantify, mostly under pKd 3.1 to 4
With MLPANYVEAI [NEB, P20929] the pKd was “below the threshold”. For LVEEEEPMNL [HDAC7, Q8WUI4], the pKd was “below the threshold”.

Each binder was assayed against T6, ARHGAP21, Q5T5U3 (assay: holdup assay). Details: plain residues with an end cap or a label only (N-terminal biotin on a linker: ado-ado).
T6 sequence (Q5T5U3 45-169, limits assumed, looked up): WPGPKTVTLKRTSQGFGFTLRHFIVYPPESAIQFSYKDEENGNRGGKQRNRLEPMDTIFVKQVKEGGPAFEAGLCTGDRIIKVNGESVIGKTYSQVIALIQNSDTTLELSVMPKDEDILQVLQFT
Set-up: key: below the threshold = too weak to quantify, mostly under pKd 3.1 to 4
In the case of MLPANYVEAI [NEB, P20929], the pKd is reported as “below the threshold”. LVEEEEPMNL [HDAC7, Q8WUI4] was tested, and the pKd was 3.77.

Each binder was assayed against T7, APBA1_2, Q02410 (assay: holdup assay). Details: plain residues with an end cap or a label only (N-terminal biotin on a linker: ado-ado).
T7 sequence (Q02410 742-832, limits assumed, looked up): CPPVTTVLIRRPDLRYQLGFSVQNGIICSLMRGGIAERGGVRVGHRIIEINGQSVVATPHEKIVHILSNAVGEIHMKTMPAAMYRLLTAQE
Set-up: key: below the threshold = too weak to quantify, mostly under pKd 3.1 to 4
For MLPANYVEAI [NEB, P20929], the pKd was “below the threshold”. In the case of LVEEEEPMNL [HDAC7, Q8WUI4], the pKd is reported as “below the threshold”.

Each binder was assayed against DLG4_1, P78352 (assay: holdup assay). Details: plain residues with an end cap or a label only (N-terminal biotin on a linker: ado-ado).
Sequence of DLG4_1, P78352 (P78352 62-152): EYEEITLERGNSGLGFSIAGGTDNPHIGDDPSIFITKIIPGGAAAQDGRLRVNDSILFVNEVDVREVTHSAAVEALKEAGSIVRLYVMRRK
Set-up: key: below the threshold = too weak to quantify, mostly under pKd 3.1 to 4
For MLPANYVEAI [NEB, P20929], the pKd was “below the threshold”. For LVEEEEPMNL [HDAC7, Q8WUI4], the pKd was “below the threshold”.

What follows are binders tested against T8, LNX2_3, Q8N448 (assay: holdup assay). Details: plain residues with an end cap or a label only (N-terminal biotin on a linker: ado-ado).
T8 sequence (Q8N448 463-564, limits assumed, looked up): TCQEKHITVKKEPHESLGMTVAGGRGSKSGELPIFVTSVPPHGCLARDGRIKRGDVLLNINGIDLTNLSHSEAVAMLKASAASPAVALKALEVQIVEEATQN
Set-up: key: below the threshold = too weak to quantify, mostly under pKd 3.1 to 4
For MLPANYVEAI [NEB, P20929], the pKd was “below the threshold”. For LVEEEEPMNL [HDAC7, Q8WUI4], the pKd was “below the threshold”.

The binders below were run against FRMPD2_2, Q68DX3 (assay: holdup assay). Details: plain residues with an end cap or a label only (N-terminal biotin on a linker: ado-ado).
Sequence of FRMPD2_2, Q68DX3 (Q68DX3 944-1038): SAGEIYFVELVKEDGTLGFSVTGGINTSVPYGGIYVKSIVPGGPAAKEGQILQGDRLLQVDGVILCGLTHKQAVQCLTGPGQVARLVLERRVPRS
Set-up: key: below the threshold = too weak to quantify, mostly under pKd 3.1 to 4
MLPANYVEAI [NEB, P20929] was tested, and the pKd was “below the threshold”. In the case of LVEEEEPMNL [HDAC7, Q8WUI4], the pKd is reported as “below the threshold”.

Each binder was assayed against MAGI3_2, Q5TCQ9 (assay: holdup assay). Details: plain residues with an end cap or a label only (N-terminal biotin on a linker: ado-ado).
Sequence of MAGI3_2, Q5TCQ9 (Q5TCQ9 398-503): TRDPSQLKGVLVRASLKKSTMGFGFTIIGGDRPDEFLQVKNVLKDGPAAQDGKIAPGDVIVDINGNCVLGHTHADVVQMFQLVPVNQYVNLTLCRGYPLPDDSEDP
Set-up: key: below the threshold = too weak to quantify, mostly under pKd 3.1 to 4
With MLPANYVEAI [NEB, P20929] the pKd was “below the threshold”. In the case of LVEEEEPMNL [HDAC7, Q8WUI4], the pKd is reported as “below the threshold”.

The binders below were run against T9, SHANK1, Q9Y566 (assay: holdup assay). Details: plain residues with an end cap or a label only (N-terminal biotin on a linker: ado-ado).
T9 sequence (Q9Y566 658-767, limits assumed, looked up): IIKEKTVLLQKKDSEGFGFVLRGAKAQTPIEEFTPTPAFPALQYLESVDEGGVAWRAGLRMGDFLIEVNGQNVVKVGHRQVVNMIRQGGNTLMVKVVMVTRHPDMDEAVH
Set-up: key: below the threshold = too weak to quantify, mostly under pKd 3.1 to 4
In the case of MLPANYVEAI [NEB, P20929], the pKd is reported as “below the threshold”. LVEEEEPMNL [HDAC7, Q8WUI4] was tested, and the pKd was “below the threshold”.

What follows are binders tested against NHERF4_2, Q86UT5 (assay: holdup assay). Details: plain residues with an end cap or a label only (N-terminal biotin on a linker: ado-ado).
Sequence of NHERF4_2, Q86UT5 (Q86UT5 220-308): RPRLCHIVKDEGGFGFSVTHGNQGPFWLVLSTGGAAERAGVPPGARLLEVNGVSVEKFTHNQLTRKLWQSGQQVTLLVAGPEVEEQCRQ
Set-up: key: below the threshold = too weak to quantify, mostly under pKd 3.1 to 4
With MLPANYVEAI [NEB, P20929] the pKd was “below the threshold”. With LVEEEEPMNL [HDAC7, Q8WUI4] the pKd was “below the threshold”.

What follows are binders tested against DLG2_3, Q15700 (assay: holdup assay). Details: plain residues with an end cap or a label only (N-terminal biotin on a linker: ado-ado).
Set-up: key: below the threshold = too weak to quantify, mostly under pKd 3.1 to 4
Work on MLPANYVEAI [NEB, P20929] yielded a pKd of 3.56. With LVEEEEPMNL [HDAC7, Q8WUI4] the pKd was “below the threshold”.

Each binder was assayed against T10, TJP3_3, O95049 (assay: holdup assay). Details: plain residues with an end cap or a label only (N-terminal biotin on a linker: ado-ado).
T10 sequence (O95049 375-456, limits assumed, looked up): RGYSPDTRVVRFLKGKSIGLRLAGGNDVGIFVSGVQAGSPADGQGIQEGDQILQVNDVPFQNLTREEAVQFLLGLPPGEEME
Set-up: key: below the threshold = too weak to quantify, mostly under pKd 3.1 to 4
For MLPANYVEAI [NEB, P20929], the pKd was “below the threshold”. For LVEEEEPMNL [HDAC7, Q8WUI4], the pKd was “below the threshold”.

What follows are binders tested against Inadl_4, Q8NI35 (assay: holdup assay). Details: plain residues with an end cap or a label only (N-terminal biotin on a linker: ado-ado).
Sequence of Inadl_4, Q8NI35 (Q8NI35 547-651): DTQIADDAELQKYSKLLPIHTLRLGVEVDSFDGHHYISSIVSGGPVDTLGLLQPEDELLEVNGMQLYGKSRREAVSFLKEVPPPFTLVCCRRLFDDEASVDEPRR
Set-up: key: below the threshold = too weak to quantify, mostly under pKd 3.1 to 4
With MLPANYVEAI [NEB, P20929] the pKd was “below the threshold”. For LVEEEEPMNL [HDAC7, Q8WUI4], the pKd was “below the threshold”.

What follows are binders tested against Inadl_8, Q8NI35 (assay: holdup assay). Details: plain residues with an end cap or a label only (N-terminal biotin on a linker: ado-ado).
Sequence of Inadl_8, Q8NI35 (Q8NI35 1425-1530): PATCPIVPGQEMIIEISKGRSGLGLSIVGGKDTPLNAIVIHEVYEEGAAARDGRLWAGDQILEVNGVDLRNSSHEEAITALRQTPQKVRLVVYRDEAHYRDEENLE
Set-up: key: below the threshold = too weak to quantify, mostly under pKd 3.1 to 4
With MLPANYVEAI [NEB, P20929] the pKd was “below the threshold”. With LVEEEEPMNL [HDAC7, Q8WUI4] the pKd was “below the threshold”.

Each binder was assayed against FRMPD2_1, Q68DX3 (assay: holdup assay). Details: plain residues with an end cap or a label only (N-terminal biotin on a linker: ado-ado).
Sequence of FRMPD2_1, Q68DX3 (Q68DX3 770-861): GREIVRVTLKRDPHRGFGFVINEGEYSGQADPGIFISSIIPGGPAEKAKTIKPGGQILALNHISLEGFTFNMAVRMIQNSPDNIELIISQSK
Set-up: key: below the threshold = too weak to quantify, mostly under pKd 3.1 to 4
For MLPANYVEAI [NEB, P20929], the pKd was “below the threshold”. For LVEEEEPMNL [HDAC7, Q8WUI4], the pKd was “below the threshold”.

What follows are binders tested against NHERF4_1, Q86UT5-2 (assay: holdup assay). Details: plain residues with an end cap or a label only (N-terminal biotin on a linker: ado-ado).
Sequence of NHERF4_1, Q86UT5-2 (Q86UT5 other isoform, or with tags, fused parts or gaps): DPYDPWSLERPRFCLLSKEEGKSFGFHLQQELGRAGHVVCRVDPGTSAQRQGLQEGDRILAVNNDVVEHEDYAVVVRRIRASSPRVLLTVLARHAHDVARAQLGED
Set-up: key: below the threshold = too weak to quantify, mostly under pKd 3.1 to 4
MLPANYVEAI [NEB, P20929] was tested, and the pKd was “below the threshold”. LVEEEEPMNL [HDAC7, Q8WUI4] was tested, and the pKd was 3.57.
